Non-standard residues stand in square brackets, D forms with d.

Results on four molecules are retold here after US20030087827A1.

B1: Ac-wrrrrr-NH2 (peptide)
peptide: Ac-[dW][dR][dR][dR][dR][dR]-NH2
SMILES: CC(=O)N[C@H](Cc1c[nH]c2ccccc12)C(=O)N[C@H](CCCNC(=N)N)C(=O)N[C@H](CCCNC(=N)N)C(=O)N[C@H](CCCNC(=N)N)C(=O)N[C@H](CCCNC(=N)N)C(=O)N[C@H](CCCNC(=N)N)C(N)=O
B2: Ac-wrrrir-NH2 (peptide)
peptide: Ac-[dW][dR][dR][dR][dI][dR]-NH2
SMILES: CC[C@@H](C)[C@@H](NC(=O)[C@@H](CCCNC(=N)N)NC(=O)[C@@H](CCCNC(=N)N)NC(=O)[C@@H](CCCNC(=N)N)NC(=O)[C@@H](Cc1c[nH]c2ccccc12)NC(C)=O)C(=O)N[C@H](CCCNC(=N)N)C(N)=O
B3: Ac-wrrril-NH2 (peptide)
peptide: Ac-[dW][dR][dR][dR][dI][dL]-NH2
SMILES: CC[C@@H](C)[C@@H](NC(=O)[C@@H](CCCNC(=N)N)NC(=O)[C@@H](CCCNC(=N)N)NC(=O)[C@@H](CCCNC(=N)N)NC(=O)[C@@H](Cc1c[nH]c2ccccc12)NC(C)=O)C(=O)N[C@H](CC(C)C)C(N)=O
B4: Ac-wrrrrl-NH2 (peptide)
peptide: Ac-[dW][dR][dR][dR][dR][dL]-NH2
SMILES: CC(=O)N[C@H](Cc1c[nH]c2ccccc12)C(=O)N[C@H](CCCNC(=N)N)C(=O)N[C@H](CCCNC(=N)N)C(=O)N[C@H](CCCNC(=N)N)C(=O)N[C@H](CCCNC(=N)N)C(=O)N[C@H](CC(C)C)C(N)=O

Sequence of recombinant truncated mouse furin (mouse) (P23188 108-714): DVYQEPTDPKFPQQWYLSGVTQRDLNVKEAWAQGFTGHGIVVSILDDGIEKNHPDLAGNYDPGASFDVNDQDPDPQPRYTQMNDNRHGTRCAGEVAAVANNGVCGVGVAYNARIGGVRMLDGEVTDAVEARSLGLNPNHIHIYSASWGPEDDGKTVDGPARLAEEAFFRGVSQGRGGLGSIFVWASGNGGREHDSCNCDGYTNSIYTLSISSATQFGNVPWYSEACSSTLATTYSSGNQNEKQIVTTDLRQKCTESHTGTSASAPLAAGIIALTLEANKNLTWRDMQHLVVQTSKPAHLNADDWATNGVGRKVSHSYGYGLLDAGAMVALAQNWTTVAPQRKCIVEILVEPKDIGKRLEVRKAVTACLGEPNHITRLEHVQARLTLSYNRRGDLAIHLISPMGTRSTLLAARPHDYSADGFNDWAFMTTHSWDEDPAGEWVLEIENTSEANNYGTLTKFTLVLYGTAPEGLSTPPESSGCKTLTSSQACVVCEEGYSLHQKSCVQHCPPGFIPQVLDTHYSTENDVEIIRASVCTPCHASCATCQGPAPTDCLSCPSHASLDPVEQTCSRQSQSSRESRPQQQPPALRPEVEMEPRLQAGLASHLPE

The target in the first assay is proprotein convertase PC2. Nature of the assay: enzyme inhibition, pERTKR-MCA hydrolysis (fluorescence), competitive Ki.
Sequence of proprotein convertase PC2 (P21661 109-637): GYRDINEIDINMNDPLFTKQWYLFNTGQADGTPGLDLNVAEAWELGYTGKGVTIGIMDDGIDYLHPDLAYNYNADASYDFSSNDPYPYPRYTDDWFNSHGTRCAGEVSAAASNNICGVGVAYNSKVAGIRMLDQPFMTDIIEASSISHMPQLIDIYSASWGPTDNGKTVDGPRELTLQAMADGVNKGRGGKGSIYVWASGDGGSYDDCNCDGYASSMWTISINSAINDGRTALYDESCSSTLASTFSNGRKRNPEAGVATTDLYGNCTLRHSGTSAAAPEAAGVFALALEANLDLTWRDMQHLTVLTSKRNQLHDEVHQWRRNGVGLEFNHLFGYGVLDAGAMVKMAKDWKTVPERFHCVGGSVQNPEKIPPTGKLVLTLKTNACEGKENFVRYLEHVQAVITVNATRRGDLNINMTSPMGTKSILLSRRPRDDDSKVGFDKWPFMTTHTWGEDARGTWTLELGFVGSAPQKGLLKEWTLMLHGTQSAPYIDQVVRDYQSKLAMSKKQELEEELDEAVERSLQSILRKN
Broadly, the Ki is the equilibrium dissociation constant of an inhibitor or competing ligand from its target. B1 yielded an inhibition constant (Ki) of 334 µM.
Same read-out and setting: in the case of B2 it was 399 µM; in that of B3, 601 µM.
The same measure, in the same setting: in the case of B4 it was 203 µM.

A further assay addresses recombinant truncated mouse furin (mouse) (UniProt P23188). The assay is described as above.
On to B1, for which the Ki was 2.4 µM.
The same measure, in the same setting: the result for B2 reads 7 µM; that for B3, 22.7 µM.
In the case of B4, the inhibitory constant (Ki) turned out to be 5.3 µM.
